Data reported in the supplement of paper PMC10126150.
± gives the standard deviation of the averaged measurements.

test system: ATP; test: switch fluorescence ratio, 500 uM ATP over buffer (Cy3 cluster intensity, sum of 5 cycles each) (fold (ratio)); higher = stronger signal-on switching upon ATP binding; sequences stand for … in TCGTCGGCAGCGTCAGATGTGTATAAGAGACAGTTTTTTTTTTTTTTTTTTTTTTTTT…TC; settings: aptamer strand: ATP DNA aptamer (quencher-CACCTGGGGGAGTATTGCGGAGGAAGG + anchor), 100 nM annealed; ATP concentration: 500 uM
Procedure, shortened: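 Clusters carrying Cy3-labelled switching strands on a modified Illumina MiSeq flow-cell were annealed to 100 nM quencher-labelled ATP aptamer and imaged in selection buffer. They were imaged again after 15 min with 500 uM ATP at 22 °C, over five buffer/ATP cycles with NaOH stripping and re-annealing in between. For each cluster, the fluorescence ratio is the summed Cy3 intensity of the target cycles divided by that of the buffer cycles, averaged per switch-domain sequence. Clusters outside 100-1000 RFU were left out.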
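Note: ATP exposure 15 min at 22 °C before imaging.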

Sequence	switch fluorescence ratio
TTCTTAACAT	1.054 ± 0.01
TTCTTACTTT	1.48 ± 0.64
TTCTTATGAT	0.9721 ± 0.0011
TTCTTCACGG	1.04 ± 0.035
TTCTTCGGAT	1.09 ± 0.11
TTCTTTCGCG	0.9467 ± 0.0023
TTCTTTTTCG	0.973 ± 0.056
TTCTTTTTGA	1.43 ± 0.59
TTCTTTTTTT	1.01 ± 0.032
TTGAAAATGT	0.96 ± 0.0076
TTGAAAGGTG	1.29 ± 0.24
TTGAAAGTG	0.9785 ± 0.0043
TTGAAATAG	0.9957 ± 0.0097
TTGAAATAGG	1.03 ± 0.011
TTGAAATAGT	1.01 ± 0.024
TTGAAATTAA	1.01 ± 0.025
TTGAAATTTT	1.001 ± 0.0077
TTGAACGTGT	0.994 ± 0.042
TTGAAGGCGG	1.02 ± 0.024
TTGAAGGGTG	1.05 ± 0.11
TTGAAGGTGG	1.08 ± 0.12
TTGAATGGTC	0.979 ± 0.081
TTGAATTAGA	0.965 ± 0.025
TTGAATTTAG	0.986 ± 0.015
TTGAATTTGA	1 ± 0.028
TTGACACTGG	1.04 ± 0.02

Sequence	switch fluorescence ratio
TTGACAGTAA	1.08 ± 0.014
TTGACATCCC	1.07 ± 0.032
TTGACGAGGT	1.07 ± 0.078
TTGACGATGA	1.04 ± 0.025
TTGACGCGTG	0.982 ± 0.023
TTGACGGTGA	1.06 ± 0.033
TTGACTAAGG	1.01 ± 0.044
TTGACTATCG	1 ± 0.076
TTGACTTGTT	1.02 ± 0.068
TTGACTTTGG	0.959 ± 0.02
TTGAGAAAGG	1.02 ± 0.025
TTGAGAAAGT	1.47 ± 0.68
TTGAGAAGTT	1.01 ± 0.021
TTGAGAGGAT	0.972 ± 0.021
TTGAGAGTCT	1.01 ± 0.18
TTGAGATACG	1.001 ± 0.0057
TTGAGATCCT	1.027 ± 0.0084
TTGAGCCGGT	1 ± 0.045
TTGAGCGGGG	0.9876 ± 0.005
TTGAGGACAG	1.02 ± 0.025
TTGAGGATAG	0.987 ± 0.021
TTGAGGCCCG	0.9375 ± 0.0031
TTGAGGGAGA	1.02 ± 0.058
TTGAGGGCCT	0.979 ± 0.021
TTGAGGGGGA	1.01 ± 0.014
TTGAGGGGTG	0.996 ± 0.037

Sequence	switch fluorescence ratio
TTGAGGGTAT	0.998 ± 0.023
TTGAGGTTAT	1.02 ± 0.061
TTGAGGTTGG	1 ± 0.026
TTGAGTCAAT	1.044 ± 0.0078
TTGAGTGGGA	0.989 ± 0.02
TTGAGTGGGC	0.979 ± 0.031
TTGAGTTGGG	0.973 ± 0.041
TTGAGTTTAA	1.003 ± 0.0065
TTGATAAAAG	1.03 ± 0.08
TTGATAATAG	1 ± 0.024
TTGATAGACG	1.07 ± 0.042
TTGATAGTCG	0.969 ± 0.024
TTGATATCAT	0.97 ± 0.049
TTGATATGAC	1.014 ± 0.0094
TTGATCCAGC	0.9958 ± 0.0068
TTGATCGGGC	1.03 ± 0.052
TTGATGAACA	1 ± 0.024
TTGATGACGG	0.9872 ± 0.0016
TTGATGCTAT	1.32 ± 0.43
TTGATGGTGG	0.987 ± 0.056
TTGATGTTCG	0.976 ± 0.015
TTGATTAGTT	0.982 ± 0.036
TTGATTATTA	1.02 ± 0.045
TTGATTCTGA	0.992 ± 0.034
